Reference: patent US10442866

Tests used:
[1] = target: human OX40 expressed on HEK293A cells (human) (UniProt P43489); assay: FACS on HEK293A cells
[2] = target: rhesus OX40 expressed on HEK293A cells (rhesus); assay: FACS on HEK293A cells
[3] = target: human OX40-CD40 fusion protein on HEK-Blue reporter cells (human); assay: cell-based or functional assay
[4] = target: recombinant human OX40-his (Sino Biological, Cat#:10481-H03H) (human) (UniProt P43489); assay: ELISA, coated hOX40-his
[5] = target: recombinant rhesus OX40-his (Sino Biological, Cat#:90846-C08H) (rhesus monkey); assay: ELISA, coated rhOX40-his
recombinant rhesus OX40-his (Sino Biological, Cat#:90846-C08H) (rhesus monkey), sequence (P43489 other isoform, or with tags, fused parts or gaps C08H C08H limits assumed): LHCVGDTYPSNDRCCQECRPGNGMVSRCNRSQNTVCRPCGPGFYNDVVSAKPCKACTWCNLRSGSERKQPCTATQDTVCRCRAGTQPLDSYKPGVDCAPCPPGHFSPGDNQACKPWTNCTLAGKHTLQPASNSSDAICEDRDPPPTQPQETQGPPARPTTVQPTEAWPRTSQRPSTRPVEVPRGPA

[6] = target: human OX40 expressed on HEK293A cells (human) (UniProt P43489); assay: FACS on HEK293A/huOX40 cells, MFI
[7] = target: rhesus OX40 expressed on HEK293A cells (rhesus); assay: FACS on HEK293A/rhOX40 cells, MFI
[8] = target: recombinant human OX40-his (Sino Biological, Cat#:10481-H03H) (human) (UniProt P43489); assay: ELISA on coated human OX40-His, OD450
[9] = target: recombinant rhesus OX40-his (Sino Biological, Cat#:90846-C08H) (rhesus monkey); assay: ELISA on coated rhesus OX40-His, OD450
[10] = target: recombinant human OX40-his (Sino Biological, Cat#:10481-H03H) (human) (UniProt P43489); assay: SPR Biacore 8K, OX40-His on chip, antibody injected

rhesus OX40 expressed on HEK293A cells (rhesus), sequence (P43489 other isoform, or with tags, fused parts or gaps limits assumed): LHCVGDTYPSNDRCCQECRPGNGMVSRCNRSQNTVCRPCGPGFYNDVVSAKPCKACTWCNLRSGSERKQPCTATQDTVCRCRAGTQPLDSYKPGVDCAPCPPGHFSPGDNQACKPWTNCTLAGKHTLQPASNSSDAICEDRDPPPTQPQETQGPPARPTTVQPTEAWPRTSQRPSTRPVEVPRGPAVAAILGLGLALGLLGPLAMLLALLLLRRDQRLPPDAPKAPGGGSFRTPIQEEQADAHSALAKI
recombinant human OX40-his (Sino Biological, Cat#:10481-H03H) (human), sequence (P43489 29-214 limits assumed): as the sequence (P43489 other isoform, or with tags, fused parts or gaps C08H C08H limits assumed) above, with Q16H, N29S, A50S, A55P, P70L, P145A, T159I, R173G, R183G, P185R counted along it
human OX40 expressed on HEK293A cells (human), sequence (P43489 29-277 limits assumed): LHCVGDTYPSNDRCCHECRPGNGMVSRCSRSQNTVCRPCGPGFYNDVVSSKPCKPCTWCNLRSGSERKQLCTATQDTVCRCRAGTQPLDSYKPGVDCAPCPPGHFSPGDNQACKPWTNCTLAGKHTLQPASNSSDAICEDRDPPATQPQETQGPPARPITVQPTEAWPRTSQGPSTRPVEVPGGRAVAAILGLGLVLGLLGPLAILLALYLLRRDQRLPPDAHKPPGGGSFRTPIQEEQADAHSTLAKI
human OX40-CD40 fusion protein on HEK-Blue reporter cells (human), sequence (chain, as listed by the source limits assumed): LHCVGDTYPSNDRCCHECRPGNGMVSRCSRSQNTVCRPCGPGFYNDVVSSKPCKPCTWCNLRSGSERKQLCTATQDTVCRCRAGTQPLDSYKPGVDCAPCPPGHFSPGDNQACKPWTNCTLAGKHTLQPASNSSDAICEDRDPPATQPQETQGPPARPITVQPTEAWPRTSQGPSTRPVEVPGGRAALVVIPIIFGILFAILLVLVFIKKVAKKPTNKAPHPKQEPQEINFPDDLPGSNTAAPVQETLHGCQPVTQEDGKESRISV

Row | Binder | EC50 [1] [µg/mL] | EC50 [2] [µg/mL] | EC50, agonistic activity in HEK-Blue assay [3] [µg/mL] | EC50 [4] [µg/mL] | EC50 [5] [µg/mL] | EC50 (read off the curve) [6] [µg/mL] | EC50 (read off the curve) [7] [µg/mL] | EC50 (read off the curve) [8] [µg/mL] | EC50 (read off the curve) [9] [µg/mL] | Kd [10] [nM] | koff [10] [s⁻¹] | kon [10] [M⁻¹ s⁻¹]
1 | MEDI0562 (antibody, INN chains, looked up, V domains shown) VH: QVQLQESGPGLVKPSQTLSLTCAVYGGSFSSGYWNWIRKHPGKGLEYIGYISYNGITYHNPSLKSRITINRDTSKNQYSLQLNSVTPEDTAVYYCARYKYDYDGGHAMDYWGQGTLVTVSS VL: DIQMTQSPSSLSASVGDRVTITCRASQDISNYLNWYQQKPGKAPKLLIYYTSKLHSGVPSRFSGSGSGTDYTLTISSLQPEDFATYYCQQGSALPWTFGQGTKVEIK | 0.0935 | 0.088 | 0.31 | 0.0651 | 0.0546 | 0.3 | 0.3 | 0.003 | 0.003 | 1.79 | 0.000154 | 86300
2 | RG7888 (antibody, INN chains, looked up, V domains shown) VH: EVQLVQSGAEVKKPGASVKVSCKASGYTFTDSYMSWVRQAPGQGLEWIGDMYPDNGDSSYNQKFRERVTITRDTSTSTAYLELSSLRSEDTAVYYCVLAPRWYFSVWGQGTLVTVSS VL: DIQMTQSPSSLSASVGDRVTITCRASQDISNYLNWYQQKPGKAPKLLIYYTSRLRSGVPSRFSGSGSGTDFTLTISSLQPEDFATYYCQQGHTLPPTFGQGTKVEIK | 0.134 | 0.113 | 0.121 | 0.0637 | 0.0668 | – | – | 0.003 | 0.003 | 0.00549 | 1.76e-06 | 322000
